Test results taken from patent US20210388087A1 (Chugai, published 2021).
Changes are numbered by the printed parent chain. Names and notes keep the numbering of the source.

B1: CE115HA000 H35E one-arm antibody (antibody, human IgG1, kappa, L234A L235A, N297A, name in Kabat numbering)
heavy: QVQLVESGGGVVQPGRSLRLSCAASGFTFSNAWMEWVRQAPGKGLEWVAQIKAKSNNYATYYAESVKGRFTISRDDSKNSLYLQMNSLKTEDTAVYYCRYVHYGAYYGVDAWGQGTTVTVSSASTKGPSVFPLAPSSKSTSGGTAALGCLVKDYFPEPVTVSWNSGALTSGVHTFPAVLQSSGLYSLSSVVTVPSSSLGTQTYICNVNHKPSNTKVDKKVEPKSCDKTHTCPPCPAPEAAGGPSVFLFPPKPKDTLMISRTPEVTCVVVDVSHEDPEVKFNWYVDGVEVHNAKTKPREEQYASTYRVVSVLTVLHQDWLNGKEYKCKVSNKALPAPIEKTISKAKGQPREPQVYTLPPSRCELTKNQVSLSCAVKGFYPSDIAVEWESNGQPENNYKTTPPVLDSDGSFFLVSKLTVDKSRWQQGNVFSCSVMHEALHNHYTQKSLSLSPDYKDDDDK
chain: EPKSSDKTHTCPPCPAPELLGGPSVFLFPPKPKDTLMISRTPEVTCVVVDVSHEDPEVKFNWYVDGVEVHNAKTKPREEQYNSTYRVVSVLTVLHQDWLNGKEYKCKVSNKALPAPIEKTISKAKGQPREPQVCTLPPSRDELTKNQVSLWCLVKGFYPSDIAVEWESNGQPENNYKTTPPVLDSDGSFFLYSKLTVDKSRWQQGNVFSCSVMHEALHNRYTQKSLSLSP
light: DIVMTQSPLSLPVTPGEPASISCRSSQSLVHSNRNTYLHWYQQKPGQAPRLLIYKVSNRFSGVPDRFSGSGSGTDFTLKISRVEAEDVGVYYCGQGTQVPYTFGQGTKLEIKRTVAAPSVFIFPPSDEQLKSGTASVVCLLNNFYPREAKVQWKVDNALQSGNSQESVTEQDSKDSTYSLSSTLTLSKADYEKHKVYACEVTHQGLSSPVTKSFNRGEC
B2: CE115HA000 H35K one-arm antibody (antibody, human IgG1, kappa, L234A L235A, N297A, name in Kabat numbering)
heavy: B1 heavy with E35K
chain: B1 chain
light: B1 light
B3: CE115HA000 K52H one-arm antibody (antibody, human IgG1, kappa, L234A L235A, N297A, name in Kabat numbering)
heavy: B1 heavy with E35H, K52H
chain: B1 chain
light: B1 light
B4: CE115HA000 H96S one-arm antibody (antibody, human IgG1, kappa, L234A L235A, N297A, name in Kabat numbering)
heavy: B1 heavy with E35H, H102S
chain: B1 chain
light: B1 light
B5: CE115HA000 H35R one-arm antibody (antibody, human IgG1, kappa, L234A L235A, N297A, name in Kabat numbering)
heavy: B1 heavy with E35R
chain: B1 chain
light: B1 light
B6: CE115HA000 H96L one-arm antibody (antibody, human IgG1, kappa, L234A L235A, N297A, name in Kabat numbering)
heavy: B1 heavy with E35H, H102L
chain: B1 chain
light: B1 light
B7: CE115HA000 K43Q one-arm antibody (antibody, human IgG1, kappa, L234A L235A, N297A, name in Kabat numbering)
heavy: B1 heavy with E35H, K43Q
chain: B1 chain
light: B1 light
B8: CE115HA000 H35M one-arm antibody (antibody, human IgG1, kappa, L234A L235A, N297A, name in Kabat numbering)
heavy: B1 heavy with E35M
chain: B1 chain
light: B1 light
B9: CE115HA000 H35W one-arm antibody (antibody, human IgG1, kappa, L234A L235A, N297A, name in Kabat numbering)
heavy: B1 heavy with E35W
chain: B1 chain
light: B1 light
B10: CE115HA000 K43E one-arm antibody (antibody, human IgG1, kappa, L234A L235A, N297A, name in Kabat numbering)
heavy: B1 heavy with E35H, K43E
chain: B1 chain
light: B1 light
B11: CE115HA000 I51E one-arm antibody (antibody, human IgG1, kappa, L234A L235A, N297A, name in Kabat numbering)
heavy: B1 heavy with E35H, I51E
chain: B1 chain
light: B1 light
B12: CE115HA000 K52F one-arm antibody (antibody, human IgG1, kappa, L234A L235A, N297A, name in Kabat numbering)
heavy: B1 heavy with E35H, K52F
chain: B1 chain
light: B1 light
B13: CE115HA000 H35V one-arm antibody (antibody, human IgG1, kappa, L234A L235A, N297A, name in Kabat numbering)
heavy: B1 heavy with E35V
chain: B1 chain
light: B1 light
B14: CE115HA000 H96R one-arm antibody (antibody, human IgG1, kappa, L234A L235A, N297A, name in Kabat numbering)
heavy: B1 heavy with E35H, H102R
chain: B1 chain
light: B1 light
B15: CE115HA000 H35G one-arm antibody (antibody, human IgG1, kappa, L234A L235A, N297A, name in Kabat numbering)
heavy: B1 heavy with E35G
chain: B1 chain
light: B1 light
B16: CE115HA000 H35Q one-arm antibody (antibody, human IgG1, kappa, L234A L235A, N297A, name in Kabat numbering)
heavy: B1 heavy with E35Q
chain: B1 chain
light: B1 light
B17: CE115HA000 H35N one-arm antibody (antibody, human IgG1, kappa, L234A L235A, N297A, name in Kabat numbering)
heavy: B1 heavy with E35N
chain: B1 chain
light: B1 light
B18: CE115HA000 H96P one-arm antibody (antibody, human IgG1, kappa, L234A L235A, N297A, name in Kabat numbering)
heavy: B1 heavy with E35H, H102P
chain: B1 chain
light: B1 light
B19: CE115HA000 H35S one-arm antibody (antibody, human IgG1, kappa, L234A L235A, N297A, name in Kabat numbering)
heavy: B1 heavy with E35S
chain: B1 chain
light: B1 light
B20: CE115HA000 H35Y one-arm antibody (antibody, human IgG1, kappa, L234A L235A, N297A, name in Kabat numbering)
heavy: B1 heavy with E35Y
chain: B1 chain
light: B1 light
B21: CE115HA000 H96K one-arm antibody (antibody, human IgG1, kappa, L234A L235A, N297A, name in Kabat numbering)
heavy: B1 heavy with E35H, H102K
chain: B1 chain
light: B1 light
B22: CE115HA000 H35T one-arm antibody (antibody, human IgG1, kappa, L234A L235A, N297A, name in Kabat numbering)
heavy: B1 heavy with E35T
chain: B1 chain
light: B1 light
B23: CE115HA000 H35I one-arm antibody (antibody, human IgG1, kappa, L234A L235A, N297A, name in Kabat numbering)
heavy: B1 heavy with E35I
chain: B1 chain
light: B1 light
B24: CE115HA000 K52E one-arm antibody (antibody, human IgG1, kappa, L234A L235A, N297A, name in Kabat numbering)
heavy: B1 heavy with E35H, K52E
chain: B1 chain
light: B1 light
B25: CE115HA000 H96Y one-arm antibody (antibody, human IgG1, kappa, L234A L235A, N297A, name in Kabat numbering)
heavy: B1 heavy with E35H, H102Y
chain: B1 chain
light: B1 light
B26: CE115HA000 I51D one-arm antibody (antibody, human IgG1, kappa, L234A L235A, N297A, name in Kabat numbering)
heavy: B1 heavy with E35H, I51D
chain: B1 chain
light: B1 light
B27: CE115HA000 K52D one-arm antibody (antibody, human IgG1, kappa, L234A L235A, N297A, name in Kabat numbering)
heavy: B1 heavy with E35H, K52D
chain: B1 chain
light: B1 light
B28: CE115HA000 H35F one-arm antibody (antibody, human IgG1, kappa, L234A L235A, N297A, name in Kabat numbering)
heavy: B1 heavy with E35F
chain: B1 chain
light: B1 light
B29: CE115HA000 H35L one-arm antibody (antibody, human IgG1, kappa, L234A L235A, N297A, name in Kabat numbering)
heavy: B1 heavy with E35L
chain: B1 chain
light: B1 light
B30: CE115HA000 H96G one-arm antibody (antibody, human IgG1, kappa, L234A L235A, N297A, name in Kabat numbering)
heavy: B1 heavy with E35H, H102G
chain: B1 chain
light: B1 light
B31: CE115HA000 H96Q one-arm antibody (antibody, human IgG1, kappa, L234A L235A, N297A, name in Kabat numbering)
heavy: B1 heavy with E35H, H102Q
chain: B1 chain
light: B1 light

Target: T1, CD3 epsilon homodimer protein (UniProt P07766 23-126)
T1 construct: immobilized on Sensor chip CM4 by amine coupling; also called CD3 (CD3 epsilon)
T1 sequence (P07766 23-126): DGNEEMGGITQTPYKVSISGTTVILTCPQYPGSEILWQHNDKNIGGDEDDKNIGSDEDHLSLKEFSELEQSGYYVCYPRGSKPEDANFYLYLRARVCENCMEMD
Assay: SPR (Biacore T200), CD3 epsilon homodimer on CM4 chip, one-arm antibody as analyte, 25 C;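 also: homodimer attached to the sensor surface via amine coupling, HBS-EP+ used as running buffer during binding runs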

Row | Binder | ratio of amounts bound (altered form / CE115HA000)
1 | B1 | 0.19
2 | B2 | 0.15
3 | B3 | 0.22
4 | B4 | 0.44
5 | B5 | 0.14
6 | B6 | 0.14
7 | B7 | 0.99
8 | B8 | 0.29
9 | B9 | 0.22
10 | B10 | 0.9
11 | B11 | 0.55
12 | B12 | 0.17
13 | B13 | 0.22
14 | B14 | 0.46
15 | B15 | 0.22
16 | B16 | 0.13

Row | Binder | ratio of amounts bound (altered form / CE115HA000)
17 | B17 | 0.35
18 | B18 | 0.12
19 | B19 | 0.23
20 | B20 | 0.16
21 | B21 | 0.38
22 | B22 | 0.26
23 | B23 | 0.12
24 | B24 | 0.26
25 | B25 | 0.17
26 | B26 | 0.29
27 | B27 | 0.25
28 | B28 | 0.21
29 | B29 | 0.11
30 | B30 | 0.43
31 | B31 | 0.42
